{
  "source": "patent US20090233317",
  "key": {"[1]": {"system": "hsGRIM1 (human Global Repressor Involved in Myogenic differentiation), full length aa 1-749"}, "[2]": {"system": "recombinantly expressed GRIM1 aa 3-147"}},
  "data": [
    {"substance": "HAT domain of p300 (bacterially expressed)", "values": [
      {"measurement": "acetylation of GRIM1", "setting": "[1]", "value": "detection of direct acetylation of GRIM1 (aa3-147 and of full-length GRIM1) by the HAT domain of p300"},
      {"measurement": "acetylation of GRIM1", "setting": "[2]", "value": "detection of direct acetylation of GRIM1 (aa3-147 and of full-length GRIM1) by the HAT domain of p300"}
    ]}
  ]
}
